Reference: FireProtDB (doi:10.1021/bi00444a012)

B1: Subtilisin BPN', P00782 (parent)
chain: MRGKKVWISLLFALALIFTMAFGSTSSAQAAGKSNGEKKYIVGFKQTMSTMSAAKKKDVISEKGGKVQKQFKYVDAASATLNEKAVKELKKDPSVAYVEEDHVAHAYAQSVPYGVSQIKAPALHSQGYTGSNVKVAVIDSGIDSSHPDLKVAGGASMVPSETNPFQDNNSHGTHVAGTVAALNNSIGVLGVAPSASLYAVKVLGADGSGQYSWIINGIEWAIANNMDVINMSLGGPSGSAALKAAVDKAVASGVVVVAAAGNEGTSGSSSTVGYPGKYPSVIAVGAVDSSNQRASFSSVGPELDVMAPGVSIQSTLPGNKYGAYNGTSMASPHVAGAAALILSKHPNWTNTQVRSSLENTTTKLGDSFYYGKGLINVQAAAQ

Variants of: B1
Details: Bacillus amyloliquefaciens, pH 8, Thermal, DSC, Tris-HCl 5.0 mM, KCl 50 mM, reversible: yes, structure 1SUP, whole UniProt chain shown; for ddG of mutation (higher = less stable): 58.8 °C

Variant | ddG of mutation (higher = less stable) | Tm | change of melting temperature, mutant - wild type (higher = more stable)
N183D | -0.45 kcal/mol | 60.2 °C | 1.7 °C
M157F | -0.48 kcal/mol | 60.3 °C | 1.8 °C
Y324K | -0.72 kcal/mol | – | –
N325S | -1.07 kcal/mol | 62.5 °C | 4 °C
Q313C | -1.25 kcal/mol | 63.2 °C | 4.7 °C
G276A | -0.3 kcal/mol | 59.6 °C | 1.1 °C
